From PMC9728169, “Enzymatic Biotransformation of Ginsenoside Rb2 into Rd by Recombinant α-L-Arabinopyranosidase from Blastococcus saxobsidens” (Journal of Microbiology and Biotechnology, 2019)

Substrate: [H][C@@]1(O[C@@H]2[C@@H](O)[C@H](O)[C@@H](CO)O[C@@]2([H])O[C@H]2CC[C@]3(C)[C@@]4([H])C[C@@H](O)[C@]5([H])[C@@]([H])([C@](C)(CCC=C(C)C)O[C@@H]6O[C@H](CO[C@@H]7OC[C@H](O)[C@H](O)[C@H]7O)[C@@H](O)[C@H](O)[C@H]6O)CC[C@@]5(C)[C@]4(C)CC[C@@]3([H])C2(C)C)O[C@H](CO)[C@@H](O)[C@H](O)[C@H]1O
Assay: hydrolysis of arabinopyranose moiety of Rb2 (kinetic read-out not detailed)
Format: biochemical, Blastococcus saxobsidens
Conditions: enzyme 10 μg/ml; substrate range 0.1 mM to 5 mM as printed (unit μM doubtful); pH and temperature not stated for this constant; unit of the source corrected

B1: AbpBs (α-L-arabinopyranosidase) (Blastococcus saxobsidens) (protein)
chain: MRRIPFNRGWETRAHANFFAEMHGAAAPWQPVTLPHDAALGRTRDAANGAGSGYVPGGVYEYRTTLAAPAEYRDRRVLLEFEGVYRTAMVYVNGSLAGSWATGYTGFVVDLDDHLRYGGDNEIRVVCRAHQDSRWYSGAGIHRPVHLVVGPLTHLALDGVRVTTTEVDAEFAVVEVATTVEHDGRGLRTLELVTEVRDGEGSAVATATSPVTVLPGEPAVVRQRLLLPTPALWGPDSPSLYTAAVVLRDGGTDVDDDAVSFGVRTLSLDPERGLRINGEPIKLRGACVHSDNGVLGAATIGRAEERRVQLLKEAGFNALRSAHNPMSRAMLDACDRYGVLVMDELTDVWTESKTDFDAALDFPQWWERDVEAMVAKDVNHPSVVFYSIGNEIPEVAKPHGAVWSRRLAEKVRALDGTRFVTNGINAMLAVIGEAKAAEEQAGINTMLTDMGAFMDELSASELVATRTAEAYDVLDAAGMNYMEARYQLDRTLFPRRVIVGAETFAGKIDRLWRLVLDHPHVIGDFTWTGWDYLGEAGVGRVAAADDPTAGQFGAPYPWLLAHVGDIDITGHRRPASYYREIVFGRRRDPYIAVLRPERHGRELSATPWAWSDTVGSWSWAGAEEKPVTVEVYSDADEVELLLDGTSLGTAKAGEANRFRAAFEVTYAPGELTAVSRTGGQETGRCSLRSATGPLALAAAADRPVVRADDTDLAHVTLTLEDADGVVALGVDREVTVTVEGPGVLQGFGSAAPATEESYLDDVHTTFDGRALAVVRPTGAGTITLTATAPGCPPVSLGIEAR
notes: pGEX-4T-1 N-terminal GST fusion in E. coli BL21 (DE3), GST removed by thrombin (purified enzyme); primer-encoded N-terminus MRRIPF
Km: 920 µM
